Measured values reported in patent publication US5856148A, “Materials and methods for biosynthesis of serine and serine-related products” (priority 1991, dated 1999).

Test system: 3-phosphoglycerate dehydrogenase (PGD)
Test: assay of PGD activity (relative catalytic activity)
Type: biochemical, E. coli
Source text: While not critical to the invention, the assay of PGD activity is generally necessary in order to establish the degree of serine sensitivity of the altered enzyme. As is well known in the art, enzyme activity is a function of the total number of enzyme molecules and the catalytic activity of each molecule. Thus, in comparing the catalytic activity of PGD feedback variants, steps must be taken to adequately control for the relative number of PGD molecules for samples in which relative catalytic activity is to be compared. There are a number of ways in which this may be accomplished. However, since it is difficult to adequately establish the level of gene expression in cells transformed with truncated serA genes (due to decreased viability), the most suitable way to compare PGD activity produced from various constructs and the wild type is to chromosomally integrate the altered serA gene containing standard regulatory elements in a single copy, followed by harvesting the transformants and determination of the relative catalytic activity as compared to PGD from wild type cells.
Any method suitable for the measurement of PGD activity may be employed. PGD activity may be measured through detection of either the forward or the reverse reaction by the method of John C. McKitrick and Lewis I. Pizer, J. Bacteriol., 141:235-245 (1980). […]

B1: WT: wild-type E. coli 3-phosphoglycerate dehydrogenase (serA), C-terminal sequence SEQ ID NO: 2 (protein, UniProt P0A9T0 2-410, looked up)
D-3-phosphoglycerate …: AKVSLEKDKIKFLLVEGVHQKALESLRAAGYTNIEFHKGALDDEQLKESIRDAHFIGLRSRTHLTEDVINAAEKLVAIGCFCIGTNQVDLDAAAKRGIPVFNAPFSNTRSVAELVIGELLLLLRGVPEANAKAHRGVWNKLAAGSFEARGKKLGIIGYGHIGTQLGILAESLGMYVYFYDIENKLPLGNATQVQHLSDLLNMSDVVSLHVPENPSTKNMMGAKEISLMKPGSLLINASRGTVVDIPALCDALASKHLAGAAIDVFPTEPATNSDPFTSPLCEFDNVLLTPHIGGSTQEAQENIGLEVAGKLIKYSDNGSTLSAVNFPEVSLPLHGGRRLMHIHENRPGVLTALNKIFAEQGVNIAAQYLQTSAQMGYVVIDIEADEDVAEKALQAMKAIPGTIRARLLY
With B1 the “Units (relative catalytic activity)” value (Table 1, following chromosomal integration of the construct) was 0.05 Units and the Units (Table 1A, wildtype and mutated serA alleles) was 0.05 Units.
